Measured values: patent publication US20080194482A1, “Selective Apac2 Receptor Peptide Agonists” (priority 2005, published 2008)
Square brackets hold non-standard residues; d marks the D form. Ends that are not written are not given here. Peptide text beside a SMILES is read from it. * marks the point of attachment. Orn = NCCC[C@H](N)C(=O)O; Hexanoyl = CCCCCC(=O)*; Aib = CC(C)(N)C(=O)O

T1: human VPAC1 (Homo sapiens, UniProt P32241)
T1 construct: expressed in transfected cells
T1 sequence (P32241 31-457): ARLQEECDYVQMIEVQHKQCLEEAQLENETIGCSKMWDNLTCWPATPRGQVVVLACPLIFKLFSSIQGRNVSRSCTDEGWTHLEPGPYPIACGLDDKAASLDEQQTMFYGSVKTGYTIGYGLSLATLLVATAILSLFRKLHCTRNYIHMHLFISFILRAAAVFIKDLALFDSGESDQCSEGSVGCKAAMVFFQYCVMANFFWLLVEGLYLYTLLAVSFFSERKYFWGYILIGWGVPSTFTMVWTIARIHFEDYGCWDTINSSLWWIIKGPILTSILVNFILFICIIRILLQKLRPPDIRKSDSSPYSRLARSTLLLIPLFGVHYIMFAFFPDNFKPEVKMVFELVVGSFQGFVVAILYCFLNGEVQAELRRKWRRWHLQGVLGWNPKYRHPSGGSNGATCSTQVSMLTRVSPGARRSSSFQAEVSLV

T2: human PAC1 (Homo sapiens, UniProt P41586)
T2 construct: expressed in transfected cells
T2 sequence (P41586 21-468): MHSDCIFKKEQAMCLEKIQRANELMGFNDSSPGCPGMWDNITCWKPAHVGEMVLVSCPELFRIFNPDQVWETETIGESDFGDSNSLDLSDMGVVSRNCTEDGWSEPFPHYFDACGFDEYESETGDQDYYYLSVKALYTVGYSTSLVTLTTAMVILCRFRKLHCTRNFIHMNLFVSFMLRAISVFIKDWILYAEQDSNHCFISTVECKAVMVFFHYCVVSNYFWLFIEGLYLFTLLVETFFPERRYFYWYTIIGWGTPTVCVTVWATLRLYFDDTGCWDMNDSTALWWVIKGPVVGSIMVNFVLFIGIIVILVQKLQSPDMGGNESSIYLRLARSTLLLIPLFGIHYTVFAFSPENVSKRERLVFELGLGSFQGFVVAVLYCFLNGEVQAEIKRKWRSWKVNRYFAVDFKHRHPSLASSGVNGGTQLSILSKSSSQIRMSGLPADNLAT

T3: human VPAC2 receptor (human, UniProt P41587 24-438)
T3 sequence (looked up): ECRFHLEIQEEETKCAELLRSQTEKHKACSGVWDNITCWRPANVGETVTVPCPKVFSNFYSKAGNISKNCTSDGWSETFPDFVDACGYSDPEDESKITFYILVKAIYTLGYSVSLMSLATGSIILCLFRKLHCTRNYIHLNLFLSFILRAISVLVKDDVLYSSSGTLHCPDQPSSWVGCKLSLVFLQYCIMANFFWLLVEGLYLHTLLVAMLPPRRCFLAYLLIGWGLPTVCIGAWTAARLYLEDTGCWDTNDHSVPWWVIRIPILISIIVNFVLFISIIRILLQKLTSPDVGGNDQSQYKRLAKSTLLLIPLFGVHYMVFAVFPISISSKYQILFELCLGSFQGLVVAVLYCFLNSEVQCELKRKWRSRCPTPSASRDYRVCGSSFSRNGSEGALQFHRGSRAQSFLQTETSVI

T4: rat VPAC2 receptor (rat, UniProt P35000 23-437)
T4 sequence (looked up): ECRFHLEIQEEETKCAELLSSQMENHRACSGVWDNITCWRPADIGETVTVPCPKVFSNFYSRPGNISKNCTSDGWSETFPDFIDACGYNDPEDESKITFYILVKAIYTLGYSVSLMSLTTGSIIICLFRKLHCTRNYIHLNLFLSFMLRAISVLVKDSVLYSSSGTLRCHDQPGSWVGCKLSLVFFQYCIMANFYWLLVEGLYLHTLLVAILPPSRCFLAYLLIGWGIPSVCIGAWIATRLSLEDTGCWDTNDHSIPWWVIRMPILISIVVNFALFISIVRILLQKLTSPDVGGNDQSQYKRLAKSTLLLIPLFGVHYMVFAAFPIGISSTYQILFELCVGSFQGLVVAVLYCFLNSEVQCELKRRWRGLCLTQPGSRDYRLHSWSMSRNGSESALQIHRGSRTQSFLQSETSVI

T5: rat VPAC1 receptor (rat, UniProt P30083 31-459)
T5 sequence (looked up): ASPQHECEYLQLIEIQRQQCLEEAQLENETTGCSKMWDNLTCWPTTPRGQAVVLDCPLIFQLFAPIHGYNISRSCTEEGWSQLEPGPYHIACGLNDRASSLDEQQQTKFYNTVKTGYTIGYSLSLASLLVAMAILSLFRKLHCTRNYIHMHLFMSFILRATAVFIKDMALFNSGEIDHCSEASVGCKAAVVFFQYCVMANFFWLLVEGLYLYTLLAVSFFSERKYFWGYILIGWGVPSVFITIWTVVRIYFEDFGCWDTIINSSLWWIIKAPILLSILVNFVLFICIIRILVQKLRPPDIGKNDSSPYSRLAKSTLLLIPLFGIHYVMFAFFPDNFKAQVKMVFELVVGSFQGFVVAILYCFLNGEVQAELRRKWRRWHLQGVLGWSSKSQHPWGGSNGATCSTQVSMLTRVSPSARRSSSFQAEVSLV

B1: VPAC2 receptor peptide agonist P394 (peptide)
peptide: HSDAVFTDQYTXLRXQLAAXXYLQSIXXGGPSSGAPPPS
modifications: N-terminal hexanoyl (C6); Tyr(OMe) at 10; Orn at 12, 21, 27 and 28; Aib at 15 and 20

Tests used:
human VPAC1 = target: T1, human VPAC1; experiment: Filter binding assay, 125I-labeled VIP tracer, VPAC1 membranes; conditions: read-out: Human VPAC1 Receptor Binding (IC50; nM)
Description: For this assay, the solutions and equipment include:
Presoak solution: 0.5% Polyethyleneamine in Aqua dest
Buffer for flushing filter plates: 25 mM HEPES pH 7.4
Blocking buffer: 25 mM HEPES pH 7.4; 0.2% protease free BSA
Assay buffer: 25 mM HEPES pH 7.4; 0.5% protease free BSA
Dilution and assay plate: PS-Microplate, U form
Filtration Plate: Multiscreen FB Opaque Plate; 1.0 μM Type B Glasfiber filter
In order to prepare the filter plates, the presoak solution is aspirated by vacuum filtration. The plates are flushed twice with 200 μL flush buffer. 200 μL blocking buffer is added to the filter plate. The filter plate is then incubated with 200 μL presoak solution for 1 hour at room temperature.
The assay plate is filled with 25 μL assay buffer, 25 μL membranes (2.5 μg) suspended in assay buffer, 25 μL compound (agonist) in assay buffer, and 25 μL tracer (about 40000 cpm) in assay buffer. The filled plate is incubated for 1 hour with shaking.
(§1) The transfer from assay plate to filter plate is conducted. The blocking buffer is aspirated by vacuum filtration and washed two times with flush buffer. 90 μL is transferred from the assay plate to the filter plate. The 90 μL transferred from assay plate is aspirated and washed three times with 200 μL flush buffer. The plastic support is removed. It is dried for 1 hour at 60° C. 30 μL Microscint is added. The count is performed.

human PAC1 = target: T2, human PAC1; experiment: Filter binding assay, 125I-labeled PACAP-27 tracer, PAC1 membranes; conditions: read-out: Human PAC1 Receptor Binding (IC50; nM)
[1] = Rat serum stability (activity remaining, CHO-VPAC2 DiscoveRx read-out); assay type: in vitro ADME
Description: The rat serum is stored at 4° C. until use and is used within two weeks. […] The aliquot is stored with aprotinin at 4° C. The aliquot is stored without aprotinin at 37° C. The aliquots are incubated overnight. […] The plate(s) are washed with cells twice in incubation buffer. The plates are allowed to hold 50 μL incubation media per well for 15 minutes. 50 μL solution per well is transferred to the cells from the plate prepared with 11 serial 5× dilutions of peptide for the 4° C. and 37° C. aliquot for each peptide studied, using the maximal concentrations that are indicated by the primary screen, in duplicate. This step dilutes the peptide concentration by a factor of two. The cells are incubated at room temperature for 30 minutes. […] The cells are incubated on the shaker (300 rpm) for 1 hour. Normal procedure with the DiscoveRx kit is followed. cAMP standards are included in column 12. EC50 values are determined from the cAMP assay data.

human VPAC2 receptor [2] = target: T3, human VPAC2 receptor; experiment: cell-based or functional assay
rat VPAC2 receptor = target: T4, rat VPAC2 receptor; experiment: cell-based or functional assay
rat VPAC1 receptor = target: T5, rat VPAC1 receptor; experiment: cell-based or functional assay
human VPAC2 receptor [3] = target: T3, human VPAC2 receptor; experiment: filter binding, human VPAC2 membranes, competition with 125I-VIP;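 note: assay plate incubated 1 h with shaking, then filtered, with filter-retained counts measured after adding scintillant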
Description: The filled plate is incubated for 1 hour with shaking.
as §1

Molecule | IC50 (human VPAC1) [nM] | IC50 (human PAC1) [nM] | Rat Serum Stability (estimated purity in % after overnight incub.) [1] [%] | Human VPAC2 Receptor: Alpha Screen (EC50; nM), cAMP generation (human VPAC2 receptor [2]) [nM] | Rat VPAC2 Receptor: DiscoveRx (EC50; nM), cAMP generation (rat VPAC2 receptor) [nM] | Rat VPAC1 Receptor: DiscoveRx (EC50; nM), cAMP generation (rat VPAC1 receptor) [nM] | IC50 (human VPAC2 receptor [3]) [nM]
CCCCCC(=O)N[C@@H](Cc1c[nH]cn1)C(=O)N[C@@H](CO)C(=O)N[C@@H](CC(=O)O)C(=O)N[C@@H](C)C(=O)N[C@H](C(=O)N[C@@H](Cc1ccccc1)C(=O)N[C@H](C(=O)N[C@@H](CC(=O)O)C(=O)N[C@@H](CC(N)=O)C(=O)N[C@@H](Cc1ccc(O)cc1)C(=O)N[C@H](C(=O)N[C@@H](CCCN)C(=O)N[C@@H](CC(C)C)C(=O)N[C@@H](CCCNC(=N)N)C(=O)NC(C)(C)C(=O)N[C@@H](CCC(N)=O)C(=O)N[C@H](C(=O)N[C@@H](C)C(=O)N[C@@H](CO)C(=O)NC(C)(C)C(=O)N[C@@H](CCCCN)C(=O)N[C@@H](Cc1ccc(O)cc1)C(=O)N[C@@H](CC(C)C)C(=O)N[C@@H](CCC(N)=O)C(=O)N[C@@H](CO)C(=O)N[C@H](C(=O)N[C@@H](CCCN)C(=O)N[C@@H](CC(N)=O)C(=O)N[C@@H](CCCN)C(=O)NCC(=O)NCC(=O)N1CCC[C@H]1C(=O)N[C@@H](CO)C(=O)N[C@@H](CO)C(=O)NCC(=O)N[C@@H](C)C(=O)N1CCC[C@H]1C(=O)N1CCC[C@H]1C(=O)N1CCC[C@H]1C(=O)N[C@@H](CO)C(=O)O)[C@@H](C)CC)C(C)C)[C@@H](C)O)[C@@H](C)O)C(C)C [Agonist P387] (Hexanoyl-HSDAVFTDNYT[Orn]LR[Aib]QVAS[Aib]KYLQSI[Orn]N[Orn]GGPSSGAPPPS-OH; C-terminus assumed) | > 3000 | > 25000 | 74.99 | – | – | – | –
CCCCCC(=O)N[C@@H](Cc1c[nH]cn1)C(=O)N[C@@H](CO)C(=O)N[C@@H](CC(=O)O)C(=O)N[C@@H](C)C(=O)N[C@H](C(=O)N[C@@H](Cc1ccccc1)C(=O)N[C@H](C(=O)N[C@@H](CCC(=O)O)C(=O)N[C@@H](CCC(N)=O)C(=O)N[C@@H](Cc1ccc(OC)cc1)C(=O)N[C@H](C(=O)N[C@@H](CCCN)C(=O)N[C@@H](CC(C)C)C(=O)N[C@@H](CCCNC(=N)N)C(=O)NC(C)(C)C(=O)N[C@@H](CCC(N)=O)C(=O)N[C@@H](CC(C)C)C(=O)N[C@@H](C)C(=O)N[C@@H](C)C(=O)NC(C)(C)C(=O)N[C@@H](CCCN)C(=O)N[C@@H](Cc1ccc(OC)cc1)C(=O)N[C@@H](CC(C)C)C(=O)N[C@@H](CCC(N)=O)C(=O)N[C@@H](CO)C(=O)N[C@H](C(=O)N[C@@H](CCCN)C(=O)N[C@@H](CCCN)C(=O)NCC(=O)NCC(=O)N1CCC[C@H]1C(=O)N[C@@H](CO)C(=O)N[C@@H](CO)C(=O)NCC(=O)N[C@@H](C)C(=O)N1CCC[C@H]1C(=O)N1CCC[C@H]1C(=O)N1CCC[C@H]1C(=O)N[C@@H](CO)C(=O)O)[C@@H](C)CC)[C@@H](C)O)[C@@H](C)O)C(C)C [Agonist P418] (Hexanoyl-HSDAVFTEQY(Me)T[Orn]LR[Aib]QLAA[Aib][Orn]Y(Me)LQSI[Orn][Orn]GGPSSGAPPPS-OH; C-terminus assumed) | > 3000 | > 25000 | 99.96 | – | – | – | –
CCCCCC(=O)N[C@@H](Cc1c[nH]cn1)C(=O)N[C@@H](CO)C(=O)N[C@@H](CC(=O)O)C(=O)N[C@@H](C)C(=O)N[C@H](C(=O)N[C@@H](Cc1ccccc1)C(=O)N[C@H](C(=O)N[C@@H](CC(=O)O)C(=O)N[C@@H](CC(N)=O)C(=O)N[C@@H](Cc1ccc(OC)cc1)C(=O)N[C@H](C(=O)N[C@@H](CCCNC(=N)N)C(=O)N[C@@H](CC(C)C)C(=O)N[C@@H](CCCNC(=N)N)C(=O)NC(C)(C)C(=O)N[C@@H](CCC(N)=O)C(=O)N[C@H](C(=O)N[C@@H](C)C(=O)N[C@@H](C)C(=O)NC(C)(C)C(=O)N[C@@H](CCCCN)C(=O)N[C@@H](Cc1ccc(O)cc1)C(=O)N[C@@H](CC(C)C)C(=O)N[C@@H](CCC(N)=O)C(=O)N[C@@H](CO)C(=O)N[C@H](C(=O)N[C@@H](CCCCN)C(=O)N[C@@H](CC(N)=O)C(=O)N[C@@H](CCCCN)C(=O)N[C@@H](CCCNC(=N)N)C(=O)N[C@@H](Cc1ccc(O)cc1)C(=O)NCC(=O)NCC(=O)N1CCC[C@H]1C(=O)N[C@@H](CO)C(=O)N[C@@H](CO)C(=O)NCC(=O)N[C@@H](C)C(=O)N1CCC[C@H]1C(=O)N1CCC[C@H]1C(=O)N1CCC[C@H]1C(=O)N[C@@H](CO)C(=O)O)[C@@H](C)CC)C(C)C)[C@@H](C)O)[C@@H](C)O)C(C)C [Agonist P358] | – | – | 13.43 | – | – | – | –
Hexanoyl-HSDAVFTDNYTRLLAKLALQKYLQSI[Orn]N[Orn]GGPSSGAPPPS [VPAC2 receptor peptide agonist P370] | – | – | – | 0.23 | 0.05 | 0.05 | 0.8
B1 | – | – | – | 0.11 | 0.03 | 0.48 | 0.41
